Laboratory results: IntAct's records for PubMed 12878161

B1: Tripartite motif-containing protein 5 (Homo sapiens), Q9C035-4 (parent)
chain: MASGILVNVKEEVTCPICLELLTQPLSLDCGHSFCQACLTANHKKSMLDKGESSCPVCRISYQPENIRPNRHVANIVEKLREVKLSPEGQKVDHCARHGEKLLLFCQEDGKVICWLCERSQEHRGHHTFLTEEVAREYQVKLQAALEMLRQKQQEAEELEADIREEKASWKTQIQYDKTNVLADFEQLRDILDWEESNELQNLEKEEEDILKSLTNSETEMVQQTQSLRELISDLEHRLQGSVMELLQGVDGVIKRTENVTLKKPETFPKNQRRVFRAPDLKGMLEVFRELTDVRRYWGWSAMARSRFTATSTSQIQAILLPQPPK
partner: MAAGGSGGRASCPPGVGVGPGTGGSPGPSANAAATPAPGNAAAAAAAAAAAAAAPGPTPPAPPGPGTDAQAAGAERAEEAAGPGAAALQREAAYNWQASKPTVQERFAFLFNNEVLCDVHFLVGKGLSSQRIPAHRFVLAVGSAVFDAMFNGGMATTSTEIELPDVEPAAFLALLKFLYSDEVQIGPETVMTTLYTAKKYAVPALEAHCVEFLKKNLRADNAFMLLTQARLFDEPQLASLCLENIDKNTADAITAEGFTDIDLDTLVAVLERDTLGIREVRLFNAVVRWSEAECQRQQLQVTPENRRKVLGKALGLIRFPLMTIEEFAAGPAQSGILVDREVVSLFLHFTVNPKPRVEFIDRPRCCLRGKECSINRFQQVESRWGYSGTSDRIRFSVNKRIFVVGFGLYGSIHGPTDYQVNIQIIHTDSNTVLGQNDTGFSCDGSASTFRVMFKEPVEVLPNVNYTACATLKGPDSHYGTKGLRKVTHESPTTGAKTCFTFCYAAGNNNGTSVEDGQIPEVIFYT

Variants of: B1
Conditions: with btbd2_human BTBD2, Q9BX70
MASGILVNVKEEVTAPIALELLTQPLSLDCGHSFCQACLTANHKKSMLDKGESSCPVCRISYQPENIRPNRHVANIVEKLREVKLSPEGQKVDHCARHGEKLLLFCQEDGKVICWLCERSQEHRGHHTFLTEEVAREYQVKLQAALEMLRQKQQEAEELEADIREEKASWKTQIQYDKTNVLADFEQLRDILDWEESNELQNLEKEEEDILKSLTNSETEMVQQTQSLRELISDLEHRLQGSVMELLQGVDGVIKRTENVTLKKPETFPKNQRRVFRAPDLKGMLEVFRELTDVRRYWGWSAMARSRFTATSTSQIQAILLPQPPK [C15A;C18A] was tested, and the “effect of a mutation on the interaction” value was “decreasing interaction”.
